Patent US20250002534A1

Biological target: recombinant LanCL1 (Lanthionine synthetase C-like protein 1) (UniProt O43813)
Assay: competition: displacement of photoprobe SEQ ID NO:22 from rLANCL1, in-gel fluorescence

Sequence of recombinant LanCL1 (Lanthionine synthetase C-like protein 1) (O43813 whole entry): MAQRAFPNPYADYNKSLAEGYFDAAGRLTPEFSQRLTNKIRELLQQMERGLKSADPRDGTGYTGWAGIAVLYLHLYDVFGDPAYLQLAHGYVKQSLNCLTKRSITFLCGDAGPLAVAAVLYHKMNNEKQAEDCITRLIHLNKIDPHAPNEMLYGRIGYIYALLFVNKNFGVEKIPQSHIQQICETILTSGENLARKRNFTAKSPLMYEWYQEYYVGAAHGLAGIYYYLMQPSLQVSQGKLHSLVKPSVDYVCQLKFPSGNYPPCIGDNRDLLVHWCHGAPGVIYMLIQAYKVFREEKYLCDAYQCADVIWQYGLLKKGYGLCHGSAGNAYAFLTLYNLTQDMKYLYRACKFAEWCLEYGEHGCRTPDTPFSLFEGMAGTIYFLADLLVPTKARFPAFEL

ED50 displacement value: > 200 µM
Binder: RALNSS [peptide of SEQ ID NO:39, RALNSS]
